T1: human RXFP1 (human, UniProt Q9HBX9 1-757)
T1 sequence (looked up): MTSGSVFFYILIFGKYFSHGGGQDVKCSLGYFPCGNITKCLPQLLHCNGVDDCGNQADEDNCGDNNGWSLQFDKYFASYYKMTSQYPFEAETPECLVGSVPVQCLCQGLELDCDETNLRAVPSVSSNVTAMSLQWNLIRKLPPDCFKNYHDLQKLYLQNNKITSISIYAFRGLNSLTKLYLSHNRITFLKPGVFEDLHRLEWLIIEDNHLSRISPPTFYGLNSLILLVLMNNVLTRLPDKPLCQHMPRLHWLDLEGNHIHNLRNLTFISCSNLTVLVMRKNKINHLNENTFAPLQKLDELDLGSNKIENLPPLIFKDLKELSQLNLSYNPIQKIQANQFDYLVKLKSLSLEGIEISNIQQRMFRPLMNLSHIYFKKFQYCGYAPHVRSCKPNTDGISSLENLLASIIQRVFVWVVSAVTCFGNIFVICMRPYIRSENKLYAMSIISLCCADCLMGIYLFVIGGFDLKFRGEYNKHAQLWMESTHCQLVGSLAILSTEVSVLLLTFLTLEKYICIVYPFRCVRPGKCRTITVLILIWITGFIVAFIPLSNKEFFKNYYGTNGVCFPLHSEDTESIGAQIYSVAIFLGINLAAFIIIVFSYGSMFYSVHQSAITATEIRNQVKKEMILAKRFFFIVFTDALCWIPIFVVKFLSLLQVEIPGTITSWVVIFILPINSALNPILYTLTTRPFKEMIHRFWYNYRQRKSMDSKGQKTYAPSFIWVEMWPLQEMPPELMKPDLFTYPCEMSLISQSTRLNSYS

T2: mouse RXFP1 (mouse, UniProt Q6R6I7 1-758)
T2 sequence (looked up): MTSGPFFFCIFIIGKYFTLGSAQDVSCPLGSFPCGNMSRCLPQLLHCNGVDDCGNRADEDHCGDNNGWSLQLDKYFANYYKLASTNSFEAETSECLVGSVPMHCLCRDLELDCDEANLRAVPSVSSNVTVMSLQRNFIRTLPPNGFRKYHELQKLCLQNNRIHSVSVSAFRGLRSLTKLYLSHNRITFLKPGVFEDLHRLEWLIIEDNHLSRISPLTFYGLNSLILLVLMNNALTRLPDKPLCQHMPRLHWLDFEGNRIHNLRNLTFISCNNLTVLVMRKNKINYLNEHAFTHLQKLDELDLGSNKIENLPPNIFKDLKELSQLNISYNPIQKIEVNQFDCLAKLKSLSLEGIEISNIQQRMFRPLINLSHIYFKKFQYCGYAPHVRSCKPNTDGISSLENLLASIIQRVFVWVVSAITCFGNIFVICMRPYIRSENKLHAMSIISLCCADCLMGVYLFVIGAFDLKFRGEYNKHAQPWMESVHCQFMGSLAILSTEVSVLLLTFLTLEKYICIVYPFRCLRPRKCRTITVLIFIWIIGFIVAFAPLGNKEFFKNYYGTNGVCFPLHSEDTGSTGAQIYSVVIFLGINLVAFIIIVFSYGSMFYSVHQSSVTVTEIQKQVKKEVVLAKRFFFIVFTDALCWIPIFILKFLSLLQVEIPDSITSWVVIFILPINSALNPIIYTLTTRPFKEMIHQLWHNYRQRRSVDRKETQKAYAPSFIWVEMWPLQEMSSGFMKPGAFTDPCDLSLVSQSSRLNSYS


What was measured:
Assay in all cases: cell-based or functional assay
[1] = biological target: T1, human RXFP1
[2] = biological target: T2, mouse RXFP1
[3] = biological target: human RXFP2 (human, UniProt Q8WXD0 1-754)
Sequence of human RXFP2 (Q8WXD0 whole entry): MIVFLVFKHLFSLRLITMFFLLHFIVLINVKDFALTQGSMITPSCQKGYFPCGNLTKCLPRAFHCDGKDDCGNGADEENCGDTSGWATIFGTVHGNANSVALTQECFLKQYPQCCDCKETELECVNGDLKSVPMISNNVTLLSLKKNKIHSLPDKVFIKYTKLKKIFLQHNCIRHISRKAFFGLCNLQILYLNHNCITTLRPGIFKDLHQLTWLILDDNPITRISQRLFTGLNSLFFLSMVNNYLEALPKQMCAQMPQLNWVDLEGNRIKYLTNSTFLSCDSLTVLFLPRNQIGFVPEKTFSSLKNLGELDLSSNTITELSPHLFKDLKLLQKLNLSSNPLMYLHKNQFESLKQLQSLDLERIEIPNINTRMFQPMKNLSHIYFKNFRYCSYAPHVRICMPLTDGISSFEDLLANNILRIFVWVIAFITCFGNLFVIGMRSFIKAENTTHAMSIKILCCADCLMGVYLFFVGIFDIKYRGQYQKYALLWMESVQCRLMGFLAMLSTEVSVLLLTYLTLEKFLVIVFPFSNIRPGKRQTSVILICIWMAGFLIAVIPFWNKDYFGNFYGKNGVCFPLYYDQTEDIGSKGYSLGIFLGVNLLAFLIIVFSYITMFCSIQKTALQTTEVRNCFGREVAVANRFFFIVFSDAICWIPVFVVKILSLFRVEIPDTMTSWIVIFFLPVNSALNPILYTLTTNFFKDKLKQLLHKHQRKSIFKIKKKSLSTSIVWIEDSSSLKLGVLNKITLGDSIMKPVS

Binder	EC50 hRXFP1 (M), cAMP assay [1] [M]	EC50 mRXFP1 (M), cAMP assay [2] [M]	EC50 hRXFP2 (M), cAMP assay [3] [M]
RELAX0086 (Fc fusion) chain 1: DKTHTCPPCPAPEFEGGPSVFLFPPKPKDTLMISRTPEVTCVVVDVSHEDPEVKFNWYVDGVEVHNAKTKPREEQYNSTYRVVSVLTVLHQDWLNGKEYKCKVSNKALPASIEKTISKAKGQPREPQVYTLPPCREEMTKNQVSLWCLVKGFYPSDIAVEWESNGQPENNYKTTPPVLDSDGSFFLYSKLTVDKSRWQQGNVFSCSVMHEALHNHYTQKSLSLSPGGGGGSGGGGSGGGGGSQLYSALANKCCHVGCTKRSLARFC chain 2: DKTHTCPPCPAPEFEGGPSVFLFPPKPKDTLMISRTPEVTCVVVDVSHEDPEVKFNWYVDGVEVHNAKTKPREEQYNSTYRVVSVLTVLHQDWLNGKEYKCKVSNKALPASIEKTISKAKGQPREPQVCTLPPSREEMTKNQVSLSCAVKGFYPSDIAVEWESNGQPENNYKTTPPVLDSDGSFFLVSKLTVDKSRWQQGNVFSCSVMHEALHNHYTQKSLSLSPGGGGGSGGGGSGGGGSGGGGGSSWMEEVIKLCGRELVRAQIAICGMSTWS	4.49e-11	2.68e-11	4.88e-08
RELAX0085 (Fc fusion) chain 1: DKTHTCPPCPAPEFEGGPSVFLFPPKPKDTLMISRTPEVTCVVVDVSHEDPEVKFNWYVDGVEVHNAKTKPREEQYNSTYRVVSVLTVLHQDWLNGKEYKCKVSNKALPASIEKTISKAKGQPREPQVYTLPPCREEMTKNQVSLWCLVKGFYPSDIAVEWESNGQPENNYKTTPPVLDSDGSFFLYSKLTVDKSRWQQGNVFSCSVMHEALHNHYTQKSLSLSPGGGGGSGGGGSGGGGSGGGGGSQLYSALANKCCHVGCTKRSLARFC chain 2: DKTHTCPPCPAPEFEGGPSVFLFPPKPKDTLMISRTPEVTCVVVDVSHEDPEVKFNWYVDGVEVHNAKTKPREEQYNSTYRVVSVLTVLHQDWLNGKEYKCKVSNKALPASIEKTISKAKGQPREPQVCTLPPSREEMTKNQVSLSCAVKGFYPSDIAVEWESNGQPENNYKTTPPVLDSDGSFFLVSKLTVDKSRWQQGNVFSCSVMHEALHNHYTQKSLSLSPGAPAPAPAPAPAPAPAPAPAGSSWMEEVIKLCGRELVRAQIAICGMSTWS	6.37e-11	3.09e-11	4.67e-08
RELAX0087 (Fc fusion) chain 1: DKTHTCPPCPAPEFEGGPSVFLFPPKPKDTLMISRTPEVTCVVVDVSHEDPEVKFNWYVDGVEVHNAKTKPREEQYNSTYRVVSVLTVLHQDWLNGKEYKCKVSNKALPASIEKTISKAKGQPREPQVYTLPPCREEMTKNQVSLWCLVKGFYPSDIAVEWESNGQPENNYKTTPPVLDSDGSFFLYSKLTVDKSRWQQGNVFSCSVMHEALHNHYTQKSLSLSPGGGGGSGGGGSGGGGSGGGGGSQLYSALANKCCHVGCTKRSLARFC chain 2: DKTHTCPPCPAPEFEGGPSVFLFPPKPKDTLMISRTPEVTCVVVDVSHEDPEVKFNWYVDGVEVHNAKTKPREEQYNSTYRVVSVLTVLHQDWLNGKEYKCKVSNKALPASIEKTISKAKGQPREPQVCTLPPSREEMTKNQVSLSCAVKGFYPSDIAVEWESNGQPENNYKTTPPVLDSDGSFFLVSKLTVDKSRWQQGNVFSCSVMHEALHNHYTQKSLSLSPGGGGGSGGGGSGGGGGSSWMEEVIKLCGRELVRAQIAICGMSTWS	4.89e-11	3.48e-11	3.63e-08
RELAX0105 (Fc fusion) chain 1: DKTHTCPPCPAPEFEGGPSVFLFPPKPKDTLMISRTPEVTCVVVDVSHEDPEVKFNWYVDGVEVHNAKTKPREEQYNSTYRVVSVLTVLHQDWLNGKEYKCKVSNKALPASIEKTISKAKGQPREPQVYTLPPCREEMTKNQVSLWCLVKGFYPSDIAVEWESNGQPENNYKTTPPVLDSDGSFFLYSKLTVDKSRWQQGNVFSCSVMHEALHNHYTQKSLSLSPGGGGGSGGGGSGGGGGSQLYSALANKCCHVGCTKRSLARFC chain 2: DKTHTCPPCPAPEFEGGPSVFLFPPKPKDTLMISRTPEVTCVVVDVSHEDPEVKFNWYVDGVEVHNAKTKPREEQYNSTYRVVSVLTVLHQDWLNGKEYKCKVSNKALPASIEKTISKAKGQPREPQVCTLPPSREEMTKNQVSLSCAVKGFYPSDIAVEWESNGQPENNYKTTPPVLDSDGSFFLVSKLTVDKSRWQQGNVFSCSVMHEALHNHYTQKSLSLSPGAPAPAPAPAPAPAPAPAPAGSSWMEEVIKLCGRELVRAQIAICGMSTWS	7.12e-11	1.49e-11	3.33e-08

Further lines, results first:

EC50 hRXFP1 (M), cAMP assay [1] [M]	EC50 mRXFP1 (M), cAMP assay [2] [M]	EC50 hRXFP2 (M), cAMP assay [3] [M]	Binder
8.09e-11	3.87e-11	1.22e-07	RELAX0107 (Fc fusion) chain 1: DKTHTCPPCPAPEFEGGPSVFLFPPKPKDTLMISRTPEVTCVVVDVSHEDPEVKFNWYVDGVEVHNAKTKPREEQYNSTYRVVSVLTVLHQDWLNGKEYKCKVSNKALPASIEKTISKAKGQPREPQVYTLPPCREEMTKNQVSLWCLVKGFYPSDIAVEWESNGQPENNYKTTPPVLDSDGSFFLYSKLTVDKSRWQQGNVFSCSVMHEALHNHYTQKSLSLSPGGGGGGSQLYSALANKCCHVGCTKRSLARFC chain 2: DKTHTCPPCPAPEFEGGPSVFLFPPKPKDTLMISRTPEVTCVVVDVSHEDPEVKFNWYVDGVEVHNAKTKPREEQYNSTYRVVSVLTVLHQDWLNGKEYKCKVSNKALPASIEKTISKAKGQPREPQVCTLPPSREEMTKNQVSLSCAVKGFYPSDIAVEWESNGQPENNYKTTPPVLDSDGSFFLVSKLTVDKSRWQQGNVFSCSVMHEALHNHYTQKSLSLSPGAPAPAPAPAPAPAPAPAPAGSSWMEEVIKLCGRELVRAQIAICGMSTWS
6.96e-11	1.98e-11	4.94e-08	RELAX0106 (Fc fusion) chain 1: DKTHTCPPCPAPEFEGGPSVFLFPPKPKDTLMISRTPEVTCVVVDVSHEDPEVKFNWYVDGVEVHNAKTKPREEQYNSTYRVVSVLTVLHQDWLNGKEYKCKVSNKALPASIEKTISKAKGQPREPQVYTLPPCREEMTKNQVSLWCLVKGFYPSDIAVEWESNGQPENNYKTTPPVLDSDGSFFLYSKLTVDKSRWQQGNVFSCSVMHEALHNHYTQKSLSLSPGGGGGSGGGGGSQLYSALANKCCHVGCTKRSLARFC chain 2: DKTHTCPPCPAPEFEGGPSVFLFPPKPKDTLMISRTPEVTCVVVDVSHEDPEVKFNWYVDGVEVHNAKTKPREEQYNSTYRVVSVLTVLHQDWLNGKEYKCKVSNKALPASIEKTISKAKGQPREPQVCTLPPSREEMTKNQVSLSCAVKGFYPSDIAVEWESNGQPENNYKTTPPVLDSDGSFFLVSKLTVDKSRWQQGNVFSCSVMHEALHNHYTQKSLSLSPGAPAPAPAPAPAPAPAPAPAGSSWMEEVIKLCGRELVRAQIAICGMSTWS
1.88e-09	1.11e-09	> 6.07e-08	RELAX0110 (Fc fusion) chain 1: DKTHTCPPCPAPEFEGGPSVFLFPPKPKDTLMISRTPEVTCVVVDVSHEDPEVKFNWYVDGVEVHNAKTKPREEQYNSTYRVVSVLTVLHQDWLNGKEYKCKVSNKALPASIEKTISKAKGQPREPQVYTLPPCREEMTKNQVSLWCLVKGFYPSDIAVEWESNGQPENNYKTTPPVLDSDGSFFLYSKLTVDKSRWQQGNVFSCSVMHEALHNHYTQKSLSLSPGGGGGSGGGGGSQLYSALANKCCHVGCTKRSLARFC chain 2: DKTHTCPPCPAPEFEGGPSVFLFPPKPKDTLMISRTPEVTCVVVDVSHEDPEVKFNWYVDGVEVHNAKTKPREEQYNSTYRVVSVLTVLHQDWLNGKEYKCKVSNKALPASIEKTISKAKGQPREPQVYTLPPCREEMTKNQVSLWCLVKGFYPSDIAVEWESNGQPENNYKTTPPVLDSDGSFFLYSKLTVDKSRWQQGNVFSCSVMHEALHNHYTQKSLSLSPGAAPAPAPAPAPAPAGSSWMEEVIKLCGRELVRAQIAICGMSTWS

From patent US20220017591A1 (AstraZeneca / MedImmune, published 2022)
